# Measured values as given in article PMC11178655, “Dosimetry and pharmacokinetics of [^177Lu]Lu-satoreotide tetraxetan in patients with progressive neuroendocrine tumours” (European Journal of Nuclear Medicine and Molecular Imaging, 2024).
# Where a SMILES comes first, the peptide text is derived from it. Bridges are numbered along the chain shown (N, C = ends). [ ]: non-standard residue; d: D form. The star is where a group is joined. DOTA = O=C(O)CN1CCN(CC(=O)O)CCN(CC(=O)*)CCN(CC(=O)O)CC1; dPhe(4-NHCONH2) = NC(=O)Nc1ccc(C[C@@H](N)C(=O)O)cc1; Dihydroorotyl(S) = O=C1C[C@@H](C(=O)*)NC(=O)N1; Phe(4-Cl) = N[C@@H](Cc1ccc(Cl)cc1)C(=O)O; Phe(4-NH2) = Nc1ccc(C[C@H](N)C(=O)O)cc1
# Tested on: patients with progressive, SSTR-positive NETs
# Experiment: Patient-specific image-based dosimetry (NUKDOS) of tumours and organs, phase I/II trial
# Assay type: in vivo, human
# Details: median (range)
# Method: In both parts A and B of the study, patients underwent planar whole-body imaging at 4 h and 1, 2, 3, and 6 days after each [^177Lu]Lu-satoreotide tetraxetan treatment cycle. Patients in part A also underwent single-photon emission computed tomography/computed tomography (SPECT/CT) at 24 h after each [^177Lu]Lu-satoreotide tetraxetan cycle. Those in part B underwent SPECT/CT, immediately before or after planar scintigraphy, at 4 h, and 1, 2, 3, and 6 days after each [^177Lu]Lu-satoreotide tetraxetan administration. Full details of the image acquisition methodology are provided in the Supplementary Information.
# Delineation of tumour volumes was performed on anatomical SPECT/CT images after each [^177Lu]Lu-satoreotide tetraxetan administration. Tumours with a longest diameter < 2 cm were not analysed due to the difficulty in correcting for partial volume effects caused by the limited spatial resolution of the SPECT/CT systems. For study inclusion in part A, one tumour lesion ≥ 2 cm must have been present for eligibility; in part B, two or more tumour lesions ≥ 2 cm must have been present, each with an uptake on SSTR imaging higher than that of normal liver parenchyma (target lesion on [^68Ga]Ga-DOTA-TATE or -DOTA-TOC positron emission tomography: maximum standardised uptake value [SUVmax] ≥ 2x the mean SUV [SUVmean] of liver background; or ^111In-scintigraphy/SPECT: Krenning score 3 or 4 [uptake > normal liver, or uptake > spleen or kidneys, respectively [26]]).
# Reconstruction parameters were set up to produce isotropic voxels of < 5 mm; voxels were continuous throughout the field of view. Anatomic coverage of the acquisition was determined according to the patients’ tumour locations on the planar whole-body scan acquisition with liver, both kidneys and spleen in the same bed position. For organs showing [^177Lu]Lu-satoreotide tetraxetan uptake, regions of interest (ROIs)/volumes of interest (VOIs) were drawn manually over the whole organs of interest (whole body, left and right kidneys, liver, spleen, and bone marrow), using the NUKDOS software for planar whole-body scans and the SPECT/CT acquired in part A [27]. VOIs for the same organs were drawn for all SPECT/CT images acquired in part B. All ROIs/VOIs were then used for activity quantification. Time-integrated activity coefficients (TIACs) for a given source volume were computed by integrating the time-activity curves. Full details of the tumour delineation and activity quantification methodology are provided in the Supplementary Information.
# Patient-specific dosimetry calculations were performed after each treatment cycle in both parts A and B, using the absorbed dose calculation features of the NUKDOS software for image-based dosimetry calculations. The NUKDOS software was chosen as it allowed for an integral approach to organ dosimetry (including image quantification, time-activity curve-fitting and dosimetry calculation). For the bone marrow, both image-based and blood-based calculations were performed in part A [28, 29]. In part B, only image-based bone marrow dosimetry was performed. Organ Level INternal Dose Assessment/EXponential Modelling (OLINDA/EXM) version 1.0 software, the most widely used version at the time of the study, was used to perform model-based dosimetry calculations, which were only performed after the first [^177Lu]Lu-satoreotide tetraxetan cycle for patients in part B. To generate organ-specific absorbed doses, TIACs were used as input data. Full details on OLINDA/EXM software settings and organ-specific TIAC calculation methods are provided in the Supplementary Information.
# All images were acquired with a 20% energy window around the main photopeak of ^177Lu (208 keV). For scatter correction, the triple-energy window method was applied based on the recommendation of the Committee on Medical Internal Radiation Dose. Whole-body images were acquired with a scanning time of 20 cm/min in a 256 × 1,024 matrix. […]
# [1] = Part A (4.5 GBq, 300 µg), image-based dosimetry, n = 11
# [2] = Part A (4.5 GBq, 300 µg), n = 7
# [3] = Part A (4.5 GBq, 300 µg), n = 9
# [4] = Part A (4.5 GBq, 300 µg), n = 11
# [5] = Part A (4.5 GBq/cycle), image-based dosimetry, n = 10
# [6] = Part A (4.5 GBq/cycle), n/n-les 9/16
# [7] = Part A and B, image-based dosimetry, n = 21
# [8] = Part B Cohort 1 (6.0 GBq, reduced to 4.5 GBq after three patients; 300 µg), n = 6
# [9] = Part B Cohort 1, image-based dosimetry, n = 1
# [10] = Part B Cohort 3 (4.5 GBq, 300 µg), n = 9
smiles,measurement,setting,value
"C[C@@H](O)[C@@H]1NC(=O)[C@H](CCCCN)NC(=O)[C@@H](Cc2ccc(NC(N)=O)cc2)NC(=O)[C@H](Cc2ccc(NC(=O)[C@@H]3CC(=O)NC(=O)N3)cc2)NC(=O)[C@H](NC(=O)[C@H](Cc2ccc(Cl)cc2)NC(=O)CN2CCN(CC(=O)O)CCN(CC(=O)O)CCN(CC(=O)O)CC2)CSSC[C@@H](C(=O)N[C@H](Cc2ccc(O)cc2)C(N)=O)NC1=O [[^177Lu]Lu-satoreotide tetraxetan, metal not drawn] ({DOTA}-[Phe(4-Cl)][dC][Phe(4-NH2)](Dihydroorotyl(S))[dPhe(4-NHCONH2)]KTC[dY]-NH2; disulfide 2-7 (inferred); C-terminus assumed)","Cycle 1 ADC, Bone marrow",[1],0.1 (0.0–0.2) Gy/GBq
same,"Cycle 3 ADC, Bone marrow",[1],0.1 (0.0–0.2) Gy/GBq
same,"Cycle 1 ADC, Liver",[2],0.2 (0.1–0.3) Gy/GBq
same,"Cycle 3 ADC, Liver",[2],0.2 (0.1–0.4) Gy/GBq
same,"Cycle 1 ADC, Spleen",[3],0.8 (0.2–1.8) Gy/GBq
same,"Cycle 3 ADC, Spleen",[3],0.5 (0.3–1.0) Gy/GBq
same,"Cycle 1 ADC, Kidneys",[4],1.1 (0.5–1.9) Gy/GBq
same,"Cycle 1 ADC, Tumours",[4],2.6 (0.4–14.3) Gy/GBq
same,"Cycle 3 ADC, Kidneys",[4],1.0 (0.7–1.8) Gy/GBq
same,"Cycle 3 ADC, Tumours",[4],1.7 (0.3–5.0) Gy/GBq
same,"Ratio of ADCs Cycle 2/Cycle 1 (300 vs. 300 µg), Bone marrow",[5],89.5 (54.7–152) %
same,"Ratio of ADCs Cycle2/Cycle 3 (300 vs. 300 µg), Bone marrow",[5],109 (23.9–297) %
same,"Ratio of ADCs Cycle 2/Cycle 1 (300 vs. 300 µg), Spleen","Part A (4.5 GBq/cycle), n = 9",93.0 (50.0–270) %
same,"Ratio of ADCs Cycle2/Cycle 3 (300 vs. 300 µg), Spleen","Part A (4.5 GBq/cycle), n = 9",127 (81.1–334) %
same,"Ratio of ADCs Cycle 2/Cycle 1 (300 vs. 300 µg), Body","Part A (4.5 GBq/cycle), n = 11",108 (38.3–142) %
same,"Ratio of ADCs Cycle 2/Cycle 1 (300 vs. 300 µg), Kidney","Part A (4.5 GBq/cycle), n = 11",116 (55.8–140) %
same,"Ratio of ADCs Cycle2/Cycle 3 (300 vs. 300 µg), Body","Part A (4.5 GBq/cycle), n = 11",95.4 (69.5–119) %
same,"Ratio of ADCs Cycle2/Cycle 3 (300 vs. 300 µg), Kidney","Part A (4.5 GBq/cycle), n = 11",101 (80.6–179) %
same,"Ratio of ADCs Cycle 2/Cycle 1 (300 vs. 300 µg), Liver lesions",[6],91.8 (28.6–156) %
same,"Ratio of ADCs Cycle2/Cycle 3 (300 vs. 300 µg), Liver lesions",[6],127 (73.3–343) %
same,"Ratio of ADCs Cycle2/Cycle 3 (300 vs. 300 µg), All lesions","Part A (4.5 GBq/cycle), n/n-les 11/23",125 (73.3–343) %
same,"Ratio of ADCs Cycle 2/Cycle 1 (300 vs. 300 µg), All lesions","Part A (4.5 GBq/cycle), n/n-les 11/24",83.4 (28.6–156) %
same,"Cycle 3 ADC, Bone marrow",[7],0.1 (0.0–0.2) Gy/GBq
same,"Ratio of Cycle 3/ Cycle 1 ADCs, Bone marrow",[7],105 (22.4–400) %
same,"Cycle 1 ADC, Bone marrow","Part A and B, image-based dosimetry, n = 29",0.1 (0.0–0.6) Gy/GBq
same,"Ratio of Cycle 3/ Cycle 1 ADCs, Liver","Part A and B, n = 7",88.5 (43.8–132) %
same,"Ratio of Cycle 3/ Cycle 1 ADCs, Spleen","Part A and B, n = 18",83.2 (40.9–231) %
same,"Ratio of Cycle 3/ Cycle 1 ADCs, Tumours","Part A and B, n = 23",78.6 (16.0–195) %
same,"Ratio of Cycle 3/ Cycle 1 ADCs, Kidneys","Part A and B, n = 25",98.6 (59.1–198) %
same,"Cycle 3 ADC, Liver","Part A and B, patient-specific dosimetry, n = 7",0.2 (0.1–0.4) Gy/GBq
same,"Cycle 1 ADC, Liver","Part A and B, patient-specific dosimetry, n = 8",0.2 (0.1–0.3) Gy/GBq
same,"Cycle 3 ADC, Spleen","Part A and B, patient-specific dosimetry, n = 19",0.7 (0.3–1.5) Gy/GBq
same,"Cycle 3 ADC, Tumours","Part A and B, patient-specific dosimetry, n = 24",4.0 (0.3–70.3) Gy/GBq
same,"Cycle 3 ADC, Kidneys","Part A and B, patient-specific dosimetry, n = 26",0.8 (0.4–1.8) Gy/GBq
same,"Cycle 1 ADC, Spleen","Part A and B, patient-specific dosimetry, n = 27",0.8 (0.2–1.8) Gy/GBq
same,"Cycle 1 ADC, Tumours","Part A and B, patient-specific dosimetry, n = 33",5.0 (0.4–83.3) Gy/GBq
same,"Cycle 1 ADC, Kidneys","Part A and B, patient-specific dosimetry, n = 35",0.9 (0.4–1.9) Gy/GBq
same,"Ratio of Cycle 3/ Cycle 1 ADCs, Bone marrow","Part A, image-based dosimetry, n = 11",101 (22.4–302) %
same,"Ratio of Cycle 3/ Cycle 1 ADCs, Liver","Part A, n = 7",88.5 (43.8–132) %
same,"Ratio of Cycle 3/ Cycle 1 ADCs, Spleen","Part A, n = 9",61.5 (40.9–231) %
same,"Ratio of Cycle 3/ Cycle 1 ADCs, Kidneys","Part A, n = 11",106 (59.1–139) %
same,"Ratio of Cycle 3/ Cycle 1 ADCs, Tumours","Part A, n = 11",76.7 (16.0–195) %
same,"Cycle 1 ADC, Bone marrow","Part B Cohort 1 (6.0 GBq, reduced to 4.5 GBq after three patients; 300 µg), image-based dosimetry, n = 6",0.1 (0.1–0.6) Gy/GBq
same,"Cycle 1 ADC, Liver","Part B Cohort 1 (6.0 GBq, reduced to 4.5 GBq after three patients; 300 µg), n = 1",0.2 (0.2–0.2) Gy/GBq
same,"Cycle 1 ADC, Tumours","Part B Cohort 1 (6.0 GBq, reduced to 4.5 GBq after three patients; 300 µg), n = 5",3.9 (1.9–83.3) Gy/GBq
same,"Cycle 1 ADC, Kidneys",[8],0.7 (0.6–1.0) Gy/GBq
same,"Cycle 1 ADC, Spleen",[8],1.0 (0.5–1.1) Gy/GBq
same,"Cycle 3 ADC, Bone marrow",[9],0.1 (0.1–0.1) Gy/GBq
same,"Ratio of Cycle 3/ Cycle 1 ADCs, Bone marrow",[9],64.3 (64.3–64.3) %
same,"Cycle 3 ADC, Kidneys","Part B Cohort 1, n = 1",0.7 (0.7–0.7) Gy/GBq
same,"Cycle 3 ADC, Spleen","Part B Cohort 1, n = 1",0.5 (0.5–0.5) Gy/GBq
same,"Ratio of Cycle 3/ Cycle 1 ADCs, Kidneys","Part B Cohort 1, n = 1",111 (111–111) %
same,"Ratio of Cycle 3/ Cycle 1 ADCs, Spleen","Part B Cohort 1, n = 1",82.3 (82.3–82.3) %
same,"Cycle 1 ADC, Bone marrow","Part B Cohort 3 (4.5 GBq, 300 µg), image-based dosimetry, n = 6",0.1 (0.1–0.1) Gy/GBq
same,"Cycle 1 ADC, Spleen","Part B Cohort 3 (4.5 GBq, 300 µg), n = 6",1.0 (0.2–1.5) Gy/GBq
same,"Cycle 1 ADC, Kidneys",[10],0.9 (0.5–1.2) Gy/GBq
same,"Cycle 1 ADC, Tumours",[10],6.8 (2.1–28.2) Gy/GBq
same,"Cycle 3 ADC, Bone marrow","Part B Cohort 3 (4.5 GBq, 300 µg; 700 µg at cycle 2), image-based dosimetry, n = 6",0.1 (0.0–0.1) Gy/GBq
same,"Cycle 3 ADC, Spleen","Part B Cohort 3 (4.5 GBq, 300 µg; 700 µg at cycle 2), n = 5",0.8 (0.3–1.1) Gy/GBq
